Measurements reported in patent publication US20230192785A1, “JNK3 INHIBITORY PEPTIDES” (UNIVERSITA' DEGLI STUDI DI MILANO, priority 2020, published 2023).
Ends that are not written are not given here.

Key:
JNK3 = JNK3 (Homo sapiens, UniProt P53779); experiment: Alpha Screen Kinase Assay, cell-free JNK3 activity; assay type: biochemical; details: cell-free AlphaScreen, FIG. 3B
Procedure: FIG. 3: A) Cell-free assay of JNK1 activity in the presence of peptides according to the invention.
To evaluate the specificity of the four peptides described above for JNK3, the Alpha Screen Kinase Assay was performed, following the experimental method described for the cell-free assays. Briefly, this AlphaScreen assay is used to measure the ability of the JNK kinase to phosphorylate its targets. The kinase reaction was performed under the following buffer conditions of the assay: 20 mM Tris / HCl (pH 7.4), 10 mM MgCl2, 1 mM DTT, 100 µM Na3VO4 and 0.01% Tween-20. Compounds (final concentration 5 µg / mL, 1% DMSO) or the control vehicle (final concentration 1% DMSO) were diluted in the assay buffer and mixed with JNK kinase (final concentration 5 nM). After an incubation time of 15 minutes at room temperature, biotinylated substrate, 6 nM final and ATP, 1 µM final diluted in assay buffer were added, followed by incubation of the dishes for 2 hours at room temperature. After this incubation period, the streptavidin donor and acceptor beads coated with anti-phosphosubstrate protein A antibody were added, with a final concentration of each component of 20 µg / mL, diluted in the following buffer: 20 mM Tris / HCl (pH 7.4), 200 mM NaCl, 80 mM ethylenediamine tetraacetic acid (EDTA) and 0.3% bovine serum albumin (BSA). After an overnight incubation, the dosage was measured using the AlphaQuest reader.
The ATP-competitive and non-selective inhibitor SP600125 was used as a positive control for the different isoforms of JNK.

[1] = Toxicity after single injection: body weight and side effects in mice; assay type: in vivo, mouse
Procedure: FIG. 9: A) Measurement of body weight in mice before treatment. Data are expressed as mean body weight (g) ± SEM. B) Weight gain or loss was analyzed as the difference between the weight at the end and before the treatment. Data are expressed as mean ± SEM.
Therefore, SIMBA2 at the highest dose was able to prevent synaptopathy in vivo.
The toxicity of SIMBA2 after a single injection was evaluated. As an index of the general health of the animals, the change in the body weight of the mice was evaluated. […] 1 month after the I.P. injection, the body weight was measured again.

mouse cortical neurons = experiment: MTT toxicity assay on cortical neurons under control conditions; assay type: cell-based; details: 24 hours, 3 doses tested, FIG. 4A
Procedure: FIG. 4: A) Toxicity at the indicated concentrations of SIMBA2 was evaluated by MTT assay and it is expressed in % survival. Data are expressed as mean ± SEM of 3 independent experiments (n = 6). ANOVA one-way, Dunnett post hoc test. B) Western blot of cortical neurons under control conditions and relative quantification showing that SIMBA2 (0.25-0.5 µM) prevents the phosphorylation of APP at the T668 position in a dose-dependent manner. Data are expressed as mean ± SEM of 3 independent experiments (n = 6). ANOVA one-way, Dunnett’s post-hoc test, ** p <0.01. C) Western blot and related quantification showing that SIMBA2 (0.25-0.5 µM) reduces P-c-Jun phosphorylation in neurons. Data are expressed as mean ± SEM of 3 independent experiments (n = 6). […]
FIG. 10: A) Toxicity at the indicated concentrations of SIMBA2, evaluated by MTT assay and expressed as fold of change with respect to tcontrol. Data are expressed as mean ± SEM of 3 independent experiments (n = 6). […] B) Western blot of cortical neurons under control conditions in the absence (Ctr) or in the presence of SIMBA2 1 µM (1) and relative quantification showing that SIMBA2 (1 µM) at 24 h prevents the phosphorylation of P-c-Jun and reduces the phosphorylation of the APP at position T668 and C) the activity is maintained at 3 days and D) at 6 days after treatment. Data are expressed as mean ± SEM of 2 independent experiments (n = 5). […]

Sequence of JNK3 (P53779 whole entry, species assumed): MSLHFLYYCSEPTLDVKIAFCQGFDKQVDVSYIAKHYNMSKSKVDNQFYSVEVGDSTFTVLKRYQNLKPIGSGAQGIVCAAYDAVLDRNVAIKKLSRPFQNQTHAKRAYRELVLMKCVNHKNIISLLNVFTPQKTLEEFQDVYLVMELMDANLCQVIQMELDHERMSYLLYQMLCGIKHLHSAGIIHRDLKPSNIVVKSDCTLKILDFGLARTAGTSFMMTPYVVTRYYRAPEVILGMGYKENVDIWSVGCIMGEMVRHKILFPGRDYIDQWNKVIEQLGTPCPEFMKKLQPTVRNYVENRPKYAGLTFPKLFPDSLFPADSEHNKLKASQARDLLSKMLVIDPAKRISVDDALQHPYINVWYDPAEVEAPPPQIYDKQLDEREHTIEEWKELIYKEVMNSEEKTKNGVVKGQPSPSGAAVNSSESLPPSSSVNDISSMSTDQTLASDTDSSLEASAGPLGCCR

Row | Substance | inhibition of JNK3 activity on p-c-Jun (JNK3) | change in body weight ([1]; 1 month after single I.P. injection, FIG. 9B) | side effects in vivo ([1]; TgCRND8 mice, 22 mg/kg) | toxicity (MTT, % survival) (mouse cortical neurons)
1 | SIMBA2 long A: peptide SDRSLHLEANEKGENVNVHVTKTNEKGEKIKVSVRQYADINEKGEAQYKCPVAQLE (Designed peptide based on size and structure to act in the interaction among beta-arrestin-2 and JNK3) | inhibit the activity of JNK3 on p-c-Jun in a concentration-dependent manner | – | – | –
2 | SIMBA2 short A: peptide SDRSLHLEAEKGNVNVHVTKTEKGKIKVSVRQYADIEKGAQYKCPVAQLE (Designed peptide based on size and structure to act in the interaction among beta-arrestin-2 and JNK3) | inhibit the activity of JNK3 on p-c-Jun in a concentration-dependent manner | – | – | –
3 | SDRSLHLEANEKGENVNVHVTKTRADKSKIKVSVRQYADINEKGEAQYKCPVAQLE [SIMBA2] | – | did not show changes in body weight | did not lead to the onset of any noticeable side effects | no toxicity
4 | SIMBA2 short B: peptide SDRSLHLEAEKGNVNVHVTKTADKKIKVSVRQYADIEKGAQYKCPVAQLE (Designed peptide based on size and structure to act in the interaction among beta-arrestin-2 and JNK3) | inhibit the activity of JNK3 on p-c-Jun in a concentration-dependent manner | – | – | –
